US20100151003A1
Bridges are numbered along the chain shown (N, C = ends). Where no end group is shown, it is not given here. DSPE = distearoylphosphatidylethanolamine; PEG3400 = polyethylene glycol, 3400 Da; PEG = not defined here

Assays:
[1] = molecular target: human EGFR on tumor cells (human) (UniProt P00533); assay: FACS, A431 cells preincubated with 2 ug EGF, 2 uM bio-P190:avidin complex, 4 °C
[2] = molecular target: human EGFR on tumor cells (human) (UniProt P00533); assay: cell-based or functional assay

Row | staining, fold over background (fold over background) [1] | Binder | IC50 D4 (ug/ml), cell killing of MDA-MB-468 cells, 1 h treatment [2] | IC50 D6 (ug/ml), cell killing of MDA-MB-468 cells, 1 h treatment [2]
1 | 20 | DPCTWEVWGRECLQ-{PEG-biotin} (disulfide 3-12 (inferred); reading uncertain) [Biotinylated-PEGylated P190] |  | 
2 |  | {DSPE-PEG3400}-DPCTWEVWGRECLQ (disulfide 3-12; not fully specified; also: inserted in liposomes) [P190-PEG-DSPE conjugate inserted in STEALTH liposomes] | 120 µg/mL | 35 µg/mL
